This is an account of results in patent publication US20100234274A1, “Use of Nestafin-1 in the Treatment for Diabetes” (priority 2009, published 2010).

The test system of data set [1] is db/db mice. The experiment in a line: i.v. injection of plasmin inhibitors in db/db mice (serum nesfatin-1, food intake, body weight). Format: in vivo, mouse. Conditions: for circulating nesfatin-1: serum at 30 minutes. The method, then:
Lower nesfatin-1 in “saline” than “ff db/db” (FIG. 3b) was due to blood dilution after injection. (b) Reduction in body weight after a 3-day i.v. AMCA (15 mg/day); (c) Food intake at day 3 during a 3-day i.v. AMCA (15 mg/day).
Hypothalamus in acetic acid supplemented with protease inhibitor cocktail tablets (Roche, Indianapolis, Ind.) was homogenized, sonicated and heated at 95° C. for 15 minutes. The samples were then centrifuged at 13,200 rpm at 4° C. for 30 minutes. The supernatants were finally collected as their protein contents were determined by the Bradford assay (Thermo-Fisher Sci. Rockford, Ill.). Mouse serum was freshly prepared by drawing blood through ophthalmectomy. About […] hypothalamic total proteins or 25 μL serum were analyzed with Waters Delta 600E/2487/717 HPLC system using an analytical C18 reverse phase column (4.6×250 mm/5 μm, Hambon, Zhangjiagang, Conn.). Nesfatin-1 was eluted with a linear gradient from 20%-40% solvent B (solvent A: water with 0.1% trifluoroacetic acid, solvent B: acetonitrile with 0.1% trifluoroacetic acid) for 20 minutes at the flow rate of iml/minute. The purified nesfatin-1 was used as the standard to determine the retention time and plot the standard curve. The fraction collected at the retention time was sent for the mass spectrometry analysis.
It is unknown how nesfatin-1 is cleared from circulation. The tiny amount of plasmin generation in periphery was previously reported and confirmed in our study (data not shown). AMCA and aprotinin, two inhibitors of plasmin, was i.v. injected to db/db. The reduction in food intake and body weight was seen while circulating nesfatin-1 was increased (FIG. 8). […] Therefore, peripheral nesfatin-1 was believed at least partially to be degraded by plasmin.

The next data set addresses T1, recombinant nesfatin-1 (UniProt P81117).
T1 sequence: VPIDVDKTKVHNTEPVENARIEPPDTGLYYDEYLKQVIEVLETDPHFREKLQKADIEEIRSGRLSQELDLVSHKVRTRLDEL

In data set [2] the test system is db/db mice. The data set can be described thus: Inhibitor pre-treatment before i.v. nesfatin-1 in db/db mice, blood glucose. Conditions: blood glucose in 6 hours. Format: in vivo, mouse. The method, then:
GW9662, a PPAR-gamma irreversible inhibitor, was i.v. injected into the tail vein of db/db mice at the dose of 0.45 μg per gram body weight. After 30 minutes, 100 ug Nesfatin-1 was injected into the tail vein of db/db mice. Blood glucose was measured in 6 hours.
Compound C, a 5′-AMP-activated protein kinase (AMPK) specific inhibitor, was intraperitoneally injected to db/db mice at the dose of 20 mg per kg body weight. Subsequently, 100 ug Nesfatin-1 was injected into the tail vein of db/db mice. Blood glucose was measured in 6 hours.

A further data set addresses plasmin (Homo sapiens, UniProt P00747). The data set can be described thus: Incubation of recombinant nesfatin-1 with plasmin. Format: biochemical. As for the experimental part:
Arrows indicated the putative cleavage sites by plasmin. (b) Nesfatin-1 was completely digested by plasmin within 2 hours.
The recovery of hypothalamic nesfatin-1 in plg^−/−lepr^−/− was consistent to its normalization in food intake and body weight (FIG. 2ac). Fasted mice always had less nesfatin-1 in hypothalamus than their freely feeding counterparties (FIG. 5b). Furthermore, plasminogen deficiency provided a unique approach to study the chronic effect of elevated nesfatin-1 in hyperphagic obese animals, which was impossible for the i.c.v. or i.p. administration due to the short half-time of nesfatin-1. Consequently, agrp and npy were found reduced in plg^−/−lepr^−/−, while pomc was elevated compared with plg^+/+lepr^−/− (FIG. 6), contradicting to the previous report that i.c.v. nesfatin-1 didn't alter the expression of pomc, npy and agrp. Consistent to the present finding, the same group reported the up-regulation of pomc by i.p. nesfatin-1 in NTS recently.

Data set [3] concerns db/db mice. The data set can be described thus: Blood glucose after i.v. nesfatin-1 in db/db mice. Format: in vivo, mouse.
The test system of another data set is wild-type mice. The experiment in a line: Intraperitoneal glucose tolerance test (IGTT) in wild-type mice. Format: in vivo, mouse. Particulars: 100 μg nesfatin-1, i.v. injection of 1.5 g/kg glucose. As for the experimental part:
Mice of the investigated genotype (plg^+/+lepr^−/−, plg^−/−lepr^−/−, plg^+/+lepr^+/+, plg^−/−lepr^+/+) were fasted for 18 hours at 8, 16 and 24 weeks old, before blood sampling from tail veins to measure fasting blood glucose using a glucose meter (Accu-Chek, Roche). Mice serum insulin was measured at the age of 12 weeks by ELISA (ALPCO, Salem, N.H.). IGTT was performed previously. As briefly, 12-week old mice were placed in clean cages without food at 4 pm on the day prior to the experiment. […] Blood glucose was measured immediately before and at 10, 20, 30, 60, 90, 120, and 180 minutes after the injection of glucose.
(§1) Amazingly as described above, the diabetic symptoms of db/db mice were essentially eliminated in plg^−/−lepr^−/−, which couldn't be possibly explained by the anorexigenic effect of nesfatin-1.

The test system of data set [4] is Streptozotocin-induced type-I diabetic C57BL/6J mice. The data set can be described thus: Streptozotocin-induced type-I diabetic mice, blood glucose. Format: in vivo. Particulars: 100 μg/mouse i.v. alone or combined with s.c. insulin (2 ng/mouse). As for the experimental part:
as §1
Male C57BL/6J mice (10 weeks) were given intraperitoneal injections of Streptozotocin (STZ) in sodium citrate (pH 4.5) on two consecutive days (100 mg/kg/day). Blood glucose was measured by tail vein sampling using the glucose oxidase enzymatic test. Diabetes was defined as a morning blood glucose reading of >16 mM after STZ. When blood glucose levels exceeded 30 mM, diabetic mice were given 16 ng of porcine insulin (Wangbang, Xuzhou, Conn.) every second day to prevent weight loss while maintaining blood glucose levels within the hyperglycemic range (16-30 mM). Nesfatin-1 (100 μg/mouse) was i.v. injected either alone or combined with s.c. insulin (2 ng/mouse) to STZ-induced type-I diabetic mice.

A short description of data set [5]: Clearance of i.v. nesfatin-1 from circulation. Format: in vivo, mouse.
Another data set concerns ob/ob mice. The data set can be described thus: Blood lipid analysis after i.v. nesfatin-1 in ob/ob mice. Conditions: 100 ug tail vein, 3 hours after injection. Format: in vivo, mouse. As for the experimental part: One hundred ug Nesfatin-1 was injected into the tail vein of ob/ob mice. Blood samples were taken 3 hours after the injection for lipid analysis.
For data set [6] the following is noted: i.c.v. or i.p. injection; cited from earlier work.
The conditions of data set [7]: both directions, nonsaturable system; cited from earlier work.
Data set [8] has as its system rats. Conditions: cited from earlier work.
For data set [9], the system named is rats. Particulars: injected directly into the brain of rats; cited from earlier work.

plasmin, sequence (P00747 97-810, species assumed): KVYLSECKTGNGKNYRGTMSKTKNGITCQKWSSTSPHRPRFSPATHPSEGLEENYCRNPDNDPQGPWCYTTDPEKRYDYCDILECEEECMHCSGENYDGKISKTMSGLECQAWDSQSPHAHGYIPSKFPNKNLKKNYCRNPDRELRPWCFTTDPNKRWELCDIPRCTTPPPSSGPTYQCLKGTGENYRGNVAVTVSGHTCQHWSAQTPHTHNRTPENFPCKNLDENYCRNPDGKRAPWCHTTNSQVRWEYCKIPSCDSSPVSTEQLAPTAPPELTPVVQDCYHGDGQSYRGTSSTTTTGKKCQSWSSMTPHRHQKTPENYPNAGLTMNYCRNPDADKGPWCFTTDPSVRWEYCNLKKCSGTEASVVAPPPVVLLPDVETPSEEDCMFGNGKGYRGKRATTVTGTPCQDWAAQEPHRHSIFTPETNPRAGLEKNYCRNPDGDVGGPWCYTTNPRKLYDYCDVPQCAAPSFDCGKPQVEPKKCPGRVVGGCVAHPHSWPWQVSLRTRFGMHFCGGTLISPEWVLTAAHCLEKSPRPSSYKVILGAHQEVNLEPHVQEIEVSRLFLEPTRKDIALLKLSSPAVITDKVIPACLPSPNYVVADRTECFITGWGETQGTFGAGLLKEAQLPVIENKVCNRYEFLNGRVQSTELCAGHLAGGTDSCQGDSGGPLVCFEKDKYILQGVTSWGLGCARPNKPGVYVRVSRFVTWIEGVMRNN
plasmin, sequence (P00747 97-580 partner limits assumed, species assumed): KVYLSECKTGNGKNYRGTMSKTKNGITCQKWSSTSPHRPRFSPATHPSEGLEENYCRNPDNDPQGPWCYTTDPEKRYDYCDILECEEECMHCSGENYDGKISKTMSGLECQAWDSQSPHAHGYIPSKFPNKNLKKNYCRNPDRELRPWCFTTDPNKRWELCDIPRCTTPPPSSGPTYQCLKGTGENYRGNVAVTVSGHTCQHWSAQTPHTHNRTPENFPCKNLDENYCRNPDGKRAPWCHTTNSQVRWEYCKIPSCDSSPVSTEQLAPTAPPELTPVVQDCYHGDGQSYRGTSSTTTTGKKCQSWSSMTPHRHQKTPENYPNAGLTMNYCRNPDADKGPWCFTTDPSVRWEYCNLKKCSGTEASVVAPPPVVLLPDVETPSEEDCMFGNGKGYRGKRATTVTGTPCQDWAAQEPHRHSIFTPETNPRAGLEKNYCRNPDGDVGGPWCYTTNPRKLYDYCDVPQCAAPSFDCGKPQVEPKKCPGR

For aprotinin, in the data set with db/db mice [1], the body weight entry is listed as “reduction”, the food intake result is reported as “reduction” and the “circulating nesfatin-1” value is “increased”.
Turning to plasmin, in the data set with recombinant nesfatin-1, the “degradation of recombinant nesfatin-1 on incubation with plasmin” value is “It was then incubated with plasmin and rapidly degraded as expected”; the “digestion of nesfatin-1 by plasmin (in vitro incubation)” value is listed as “Nesfatin-1 was completely digested by plasmin within 2 hours”.
`O=C(Nc1ccccc1)c1cc([N+](=O)[O-])ccc1Cl` [GW9662]: the “inhibition of the anti-diabetic effect of nesfatin-1” value with db/db mice [2] (0.45 μg per gram body weight i.v., 30 minutes before 100 ug nesfatin-1) is “fully inhibited”.
On to `c1cc(-c2cnn3cc(-c4ccc(OCCN5CCCCC5)cc4)cnc23)ccn1` [Compound C], for which the “inhibition of the anti-diabetic effect of nesfatin-1” value with db/db mice [2] (20 mg per kg body weight intraperitoneally before 100 ug nesfatin-1) was “fully inhibited”.
Turning to `NC[C@H]1CC[C@H](C(=O)O)CC1` [AMCA, tranexamic acid], in the data set with db/db mice [1], the body weight result is recorded as “reduction”, the food intake entry was “reduction” and the “circulating nesfatin-1” value is “increased”.

B1: nesfatin-1: recombinant nesfatin-1 expressed and purified from genetically engineered E. coli; secreted N-terminus fragment of NUCB2 (protein)
peptide: VPIDVDKTKVHNTEPVENARIEPPDTGLYYDEYLKQVIEVLETDPHFREKLQKADIEEIRSGRLSQELDLVSHKVRTRLDEL
Turning to B1, the “time to complete digestion by plasmin” value with plasmin (FIG. 4b) is no more than 2 h. For the same molecule, the “degradation on incubation with plasmin” value in the data set with plasmin (recombinant nesfatin-1 from E. coli) is recorded as “rapidly degraded”. Also, the blood glucose result in the data set on db/db mice [3] (100 μg i.v., freely fed db/db) is listed as “significantly reduced”. The diabetic improvement result in the data set on db/db mice [3] (i.c.v. injection, db/db, data not shown) is “little diabetic improvement”. Further, the “duration of anti-diabetic effect” value in the data set with db/db mice [3] (i.v.) was greater than 6 h. For the same molecule, the “dose and time dependence of anti-diabetic effect” value with db/db mice [3] (i.v., FIG. 7d, e) is “dose- and time-dependent”. In addition, the “uptake of blood sugar during IGTT” value with wild-type mice is recorded as “significantly enhanced the uptake of blood sugar”. The blood glucose entry in data set [4] is “decreased only when nesfatin-1 was injected with s.c. insulin”. In data set [5] (i.v., data not shown), the “clearance in plg−/− versus plg+/+” value is “cleared much slower”. In [5] (mouse, in vivo), the half-life in circulation was 10 min. Further, in the data set with ob/ob mice, the HDL in blood entry is recorded as “unaffected”, the LDL in blood entry is reported as “significantly reduced”, the “total cholesterol in blood” value is recorded as “significantly reduced” and the triglyceride in blood entry was “significantly reduced”. Besides, in data set [6], the body weight entry is given as “reduces body weight” and the food intake result was “inhibits food intake”. Further, the “blood brain barrier crossing” value in data set [7] was “crosses the Blood Brain Barrier (BBB)”. Besides, the neuropsychological effect entry with rats [8] is “increasing anxiety and fear-related behaviors”.

B2: NUCB2: hypothalamus-secreted protein containing 396 amino acids, precursor of nesfatin-1 (protein, UniProt P80303 25-420, looked up)
Nucleobindin-2: VPIDIDKTKVQNIHPVESAKIEPPDTGLYYDEYLKQVIDVLETDKHFREKLQKADIEEIKSGRLSKELDLVSHHVRTKLDELKRQEVGRLRMLIKAKLDSLQDIGMDHQALLKQFDHLNHLNPDKFESTDLDMLIKAATSDLEHYDKTRHEEFKKYEMMKEHERREYLKTLNEEKRKEEESKFEEMKKKHENHPKVNHPGSKDQLKEVWEETDGLDPNDFDPKTFFKLHDVNSDGFLDEQELEALFTKELEKVYDPKNEEDDMVEMEEERLRMREHVMNEVDTNKDRLVTLEEFLKATEKKEFLEPDSWETLDQQQFFTEEELKEYENIIALQENELKKKADELQKQKEELQRQHDQLEAQKLEYHQVIQQMEQKKLQQGIPPSGPAGELKFEPHI
As for B2, in the data set on rats [9], the body weight result was “decreases body weight” and the feeding entry is recorded as “promotes anorexia”.
